Assays:
Smc2 = biological target: T1, Smc2 (budding yeast (S. cerevisiae), UniProt P38989 1-1170); assay: cryo-EM structure; condensin pentamer with 100 nM relaxed circular DNA (1,789 bp), 5 mM ADP, 1 mM BeSO4, 10 mM NaF in TNT buffer pH 7.5; VPP and non-VPP images; low-resolution maps of the head module and of Ycg1-DNA; conditions: both partners purified
T1 construct: Smc2, SMC subunit of budding yeast (S. cerevisiae) condensin; only the head domain and proximal coiled coil (neck) are resolved in the maps; Subunit of the wild-type condensin tetramer and pentamer used for cryo-EM
T1 sequence: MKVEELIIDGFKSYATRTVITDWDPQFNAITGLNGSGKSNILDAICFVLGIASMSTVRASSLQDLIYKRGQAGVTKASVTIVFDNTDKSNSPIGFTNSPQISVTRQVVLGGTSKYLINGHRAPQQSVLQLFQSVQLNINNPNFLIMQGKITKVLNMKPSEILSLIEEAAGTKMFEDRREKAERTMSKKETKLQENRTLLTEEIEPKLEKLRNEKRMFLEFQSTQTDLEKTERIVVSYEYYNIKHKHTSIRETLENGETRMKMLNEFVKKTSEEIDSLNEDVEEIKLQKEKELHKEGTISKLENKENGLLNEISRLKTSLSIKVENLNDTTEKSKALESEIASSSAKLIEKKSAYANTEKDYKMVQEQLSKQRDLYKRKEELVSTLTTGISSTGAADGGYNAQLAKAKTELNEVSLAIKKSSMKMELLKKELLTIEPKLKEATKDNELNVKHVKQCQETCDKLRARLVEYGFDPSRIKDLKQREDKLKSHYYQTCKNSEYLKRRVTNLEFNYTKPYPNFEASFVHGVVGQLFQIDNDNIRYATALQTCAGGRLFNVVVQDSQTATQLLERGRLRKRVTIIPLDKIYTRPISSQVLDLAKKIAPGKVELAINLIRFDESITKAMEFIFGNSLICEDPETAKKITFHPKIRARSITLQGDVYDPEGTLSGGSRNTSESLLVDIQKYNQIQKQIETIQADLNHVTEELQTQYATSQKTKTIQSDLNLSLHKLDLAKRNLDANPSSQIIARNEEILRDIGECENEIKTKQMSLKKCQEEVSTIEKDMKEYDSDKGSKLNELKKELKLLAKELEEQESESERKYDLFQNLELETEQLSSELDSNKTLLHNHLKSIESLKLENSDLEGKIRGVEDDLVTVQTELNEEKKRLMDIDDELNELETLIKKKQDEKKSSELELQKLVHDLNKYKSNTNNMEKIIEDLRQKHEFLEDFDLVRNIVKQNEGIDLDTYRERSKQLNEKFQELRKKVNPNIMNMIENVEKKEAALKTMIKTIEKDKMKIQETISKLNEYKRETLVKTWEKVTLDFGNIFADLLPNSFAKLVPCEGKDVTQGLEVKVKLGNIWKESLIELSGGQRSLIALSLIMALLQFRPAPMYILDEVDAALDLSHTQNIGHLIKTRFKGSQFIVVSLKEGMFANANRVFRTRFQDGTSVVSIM

Ycs4 = biological target: T2, Ycs4 (S. cerevisiae, UniProt Q06156 1-1176); assay: as above; conditions: both partners purified
T2 construct: Ycs4, HAWK (HEAT repeat) subunit of S. cerevisiae condensin
T2 sequence: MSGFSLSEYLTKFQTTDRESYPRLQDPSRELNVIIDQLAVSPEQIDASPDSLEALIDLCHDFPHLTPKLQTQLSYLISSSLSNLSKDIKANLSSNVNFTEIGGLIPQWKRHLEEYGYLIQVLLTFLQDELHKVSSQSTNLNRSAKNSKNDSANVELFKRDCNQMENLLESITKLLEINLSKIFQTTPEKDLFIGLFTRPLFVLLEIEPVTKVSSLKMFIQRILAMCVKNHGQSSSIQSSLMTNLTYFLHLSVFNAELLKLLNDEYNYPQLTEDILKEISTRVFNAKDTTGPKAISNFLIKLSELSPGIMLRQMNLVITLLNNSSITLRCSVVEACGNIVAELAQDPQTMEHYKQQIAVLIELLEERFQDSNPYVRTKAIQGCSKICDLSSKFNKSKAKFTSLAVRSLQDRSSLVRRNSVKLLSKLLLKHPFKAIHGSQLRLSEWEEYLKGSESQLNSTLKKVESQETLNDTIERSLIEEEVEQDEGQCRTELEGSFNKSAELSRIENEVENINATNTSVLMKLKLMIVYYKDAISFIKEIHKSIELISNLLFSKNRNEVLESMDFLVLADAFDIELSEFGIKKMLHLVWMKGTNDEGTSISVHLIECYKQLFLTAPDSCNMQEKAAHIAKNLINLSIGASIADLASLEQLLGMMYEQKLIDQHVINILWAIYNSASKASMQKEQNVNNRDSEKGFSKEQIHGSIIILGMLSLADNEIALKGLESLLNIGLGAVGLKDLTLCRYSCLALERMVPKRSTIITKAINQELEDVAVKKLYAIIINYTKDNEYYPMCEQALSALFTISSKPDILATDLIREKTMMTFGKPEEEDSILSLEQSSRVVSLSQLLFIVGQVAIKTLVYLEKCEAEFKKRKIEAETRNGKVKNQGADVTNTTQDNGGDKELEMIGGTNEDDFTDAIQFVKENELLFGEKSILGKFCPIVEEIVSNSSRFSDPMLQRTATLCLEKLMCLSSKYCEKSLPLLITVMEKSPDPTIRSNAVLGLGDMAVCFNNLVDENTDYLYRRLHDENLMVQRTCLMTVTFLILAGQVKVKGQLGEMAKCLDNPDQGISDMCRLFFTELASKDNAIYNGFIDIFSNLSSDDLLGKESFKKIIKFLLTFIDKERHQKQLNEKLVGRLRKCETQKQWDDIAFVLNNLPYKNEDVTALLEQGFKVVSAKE

B1: Brn1-HA3-His12 (natural protein, budding yeast (S. cerevisiae), UniProt P38170 1-754, looked up)
chain: MTTQLRYENNDDDERVEYNLFTNRSTMMANFEEWIKMATDNKINSRNSWNFALIDYFYDLDVLKDGENNINFQKASATLDGCIKIYSSRVDSVTTETGKLLSGLAQRKTNGASNGDDSNGGNGEGLGGDSDEANIEIDPLTGMPISNDPDVNNTRRRVYNRVLETTLVEFETIKMKELDQELIIDPLFKKALVDFDEGGAKSLLLNTLNIDNTARVIFDASIKDTQNVGQGKLQRKEEELIERDSLVDDENEPSQSLISTRNDSTVNDSVISAPSMEDEILSLGMDFIKFDQIAVCEISGSIEQLRNVVEDINQAKDFIENVNNRFDNFLTEEELQAAVPDNAEDDSDGFDMGMQQELCYPDENHDNTSHDEQDDDNVNSTTGSIFEKDLMAYFDENLNRNWRGREHWKVRNFKKANLVNKESDLLEETRTTIGDTTDKNTTDDKSMDTKKKHKQKKVLEIDFFKTDDSFEDKVFASKGRTKIDMPIKNRKNDTHYLLPDDFHFSTDRITRLFIKPGQKMSLFSHRKHTRGDVSSGLFEKSTVSANHSNNDIPTIADEHFWADNYERKEQEEKEKEQSKEVGDVVGGALDNPFEDDMDGVDFNQAFEGTDDNEEASVKLDLQDDEDHKFPIRENKVTYSRVSKKVDVRRLKKNVWRSINNLIQEHDSRKNREQSSNDSETHTEDESTKELKFSDIIQGISKMYSDDTLKDISTSFCFICLLHLANEHGLQITHTENYNDLIVNYEDLATTQAAS
notes: Brn1, kleisin subunit of budding yeast (S. cerevisiae) condensin; 754 residues as printed (279/754 traced in the head module map); The tags' end is read from the plasmid's name BRN1-HA3-His12; also called kleisin Brn1
binding result (Smc2): binds | binding result (Ycs4): binds

Reference: PMC9168836, “Clamping of DNA shuts the condensin neck gate” (Proceedings of the National Academy of Sciences of the …, 2021)
